Results published in patent US6699662B1, “Inhibitors of staphylococcus SarA protein function involved in the expression of staphylococcal virulence factors and the use thereof in treating staphylococcal infections” (priority 1999, dated 2004).

System: P2-P3 promoter region
Experiment: DNase I footprinting of SarA binding to the agr regulatory region
Parameters: species or system Staphylococcus aureus
Conditions: 40 pM 32P-labeled DNA; regions A1, A2, B1, B2, C1, C2
Procedure: To test this notion and identify binding sites for SarA in this region, DNase I footprinting was perfomred with the purified SarA. […] The data were quantified by phosphorimaging.
SarA was allowed to bind to the DNA in a reaction mixture containing 40 pM of ^32P-labeled DNA, 10 mM Hepes (pH 7.6), 5 mM MgCl2, 1 mM CaCl2, 1 mM DTT, and 100 mM KCl at room temperature for 30 minutes. An amount of DNase I, which produced approximately 50% non-nicked DNA, was added to the reaction mixture and incubated for 2 minutes. The reaction was quenched by addition of stop solution (80% EtOH, tRNA (1 ug/ml), 0.3 M NH4OAc) and immediately put into a dry ice/EtOH bath for 30 minutes. A visible pellet was obtained after centrifugation and washed with 70% ethanol. Following denaturing gel electrophoresis, the DNA fragments were detected and quantified by phosphoimaging. The radioactivity in the bands for samples containing SarA was subtracted from the no protein control using Microsoft Excel. The concentration of SarA required to protect a cleavage site fully was determined. To identify the regions of protection within the inter-promoter region, purine sequencing was included in the analysis. Chemical sequencing was done according to standard procedures.

B1: SarA: purified full-length recombinant S. aureus (strain DB) SarA protein expressed in E. coli (protein)
chain: AITKINDCFELLSMVTYADKLKSLIKKEFSSISFEEFAVLTYISENKEKEYYLKDIINHLNYKQPQVVKAVKILSQEDYDKKRNEHDERTVLILVNAQQRKKIESLLSRVNKRITEANNEIEL
- SarA concentration at which the footprinted regions were protected by more than 50%: 3 to 6 pM
